# Assays:
# [1] = target: human lactoferrin (LF), intact, purified from human milk/colostrum (UniProt P02788)
# human lactoferrin (LF), intact, purified from human milk/colostrum, sequence (P02788 20-710): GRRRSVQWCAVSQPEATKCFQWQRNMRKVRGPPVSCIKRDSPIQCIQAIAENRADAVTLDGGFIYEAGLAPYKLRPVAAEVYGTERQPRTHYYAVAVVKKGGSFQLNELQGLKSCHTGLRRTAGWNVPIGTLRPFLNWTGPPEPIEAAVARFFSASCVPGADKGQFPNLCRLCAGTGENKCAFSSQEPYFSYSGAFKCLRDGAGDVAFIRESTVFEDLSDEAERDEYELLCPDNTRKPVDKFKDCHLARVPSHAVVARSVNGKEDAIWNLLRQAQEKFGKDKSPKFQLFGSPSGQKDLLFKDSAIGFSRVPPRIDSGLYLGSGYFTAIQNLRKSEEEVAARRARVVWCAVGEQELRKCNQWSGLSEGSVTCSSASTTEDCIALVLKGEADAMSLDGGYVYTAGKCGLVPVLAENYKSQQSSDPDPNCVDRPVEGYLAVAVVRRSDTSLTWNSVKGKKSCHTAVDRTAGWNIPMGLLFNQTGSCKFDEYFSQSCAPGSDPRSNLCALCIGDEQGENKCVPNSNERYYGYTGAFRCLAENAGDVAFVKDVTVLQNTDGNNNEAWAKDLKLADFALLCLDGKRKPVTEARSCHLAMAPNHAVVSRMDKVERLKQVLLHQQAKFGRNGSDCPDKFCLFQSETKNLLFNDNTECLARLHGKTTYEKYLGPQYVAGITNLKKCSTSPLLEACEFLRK
# bovine spleen cathepsin D (Sigma), sequence (chain, as listed by the source): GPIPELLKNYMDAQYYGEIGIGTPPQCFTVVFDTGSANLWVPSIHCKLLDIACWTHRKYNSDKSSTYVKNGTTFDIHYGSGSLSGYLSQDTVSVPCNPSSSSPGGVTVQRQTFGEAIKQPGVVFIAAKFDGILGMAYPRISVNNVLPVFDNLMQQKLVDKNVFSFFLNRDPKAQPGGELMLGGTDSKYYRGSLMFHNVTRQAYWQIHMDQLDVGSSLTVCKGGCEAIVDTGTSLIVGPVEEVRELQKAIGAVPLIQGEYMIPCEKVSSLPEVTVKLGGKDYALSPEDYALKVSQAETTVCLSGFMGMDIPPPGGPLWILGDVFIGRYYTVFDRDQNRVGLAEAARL
substance,measurement,setting,value
bovine spleen cathepsin D (Sigma),"loss of proteolytic release of the 6 kDa fragment from LF, seen by immunoblot",pepstatin A,"incubations of LF performed in the absence of cathepsin D or in the presence of pepstatin A, an inhibitor of cathepsin D, failed to identify a 6 kDa fragment"
same,"proteolytic release of the N-terminal 6 kDa polypeptide, seen by immunoblot",[1],"Exposure of either iron-saturated or iron-free LF to even small amounts of cathepsin D ( 1/200th, w:w) for a period as brief as five minutes yielded the N-terminal 6 kDa polypeptide"
